Data as given in patent US20240368304A1.

Molecular target: epidermal growth factor receptor variant III (EGFRvIII) on U87EGFRvIII cells (UniProt P00533)
Assay: cell-based or functional assay

Human IFN-gamma release from CAR T cells co-cultured with U87 VIII GFP target cells (sandwich ELISA, E:T 10:3): 4750
Substance: 2173 CD28zeta CAR (EGFRvIII specific CAR) on transduced primary human T cells
% cytolysis (killing) of U87 VIII GFP target cells, xCELLigence eSight impedance: 100%
